Assay results: US20100158922A1

Target: recombinant human IFNγ (human) (UniProt P01579)
Test: cell-based or functional assay

Chain of recombinant human IFNγ (human) (P01579 24-166 limits assumed): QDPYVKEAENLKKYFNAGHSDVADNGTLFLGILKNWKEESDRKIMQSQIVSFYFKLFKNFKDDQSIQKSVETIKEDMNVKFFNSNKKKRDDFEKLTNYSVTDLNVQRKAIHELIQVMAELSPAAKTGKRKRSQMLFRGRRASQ

Percentage inhibition of IFNγ-induced reporter gene expression at 0.011 nM scFv: 20%
Percentage inhibition of IFNγ-induced reporter gene expression at 0.043 nM scFv: 28%
Percentage inhibition of IFNγ-induced reporter gene expression at 0.17 nM scFv: 36%
Percentage inhibition of IFNγ-induced reporter gene expression at 0.68 nM scFv: 55%
Percentage inhibition of IFNγ-induced reporter gene expression at 2.7 nM scFv: 69%
B1: AC1.2R3P7_D3 scFv (scFv, part only; not given: scFv linker, part only)
scFv, part: EVQLLESGGGLVQPGGSLKLSCAASGFTFSSNAMSWVRQAPGKGLEWVSTLTGSGGTAYYADSVEGRFSISRDNSKNTLYLQMNSLRAEDTAVYYCAKGTELVGGGLDNWGQGTLVTVSSNFMLTQPHSLSESPGKTVTISCTGSGGSIATNYVQWYQQRPGSAPTTVIHEDNQRPSGVPDRFSGSIDGSSNSASLTISGLQPEDEADYYCQSYDSDNHHVVFGGGTKLTVLG
